Substrate in the series: NC(=O)N1c2ccccc2C=Cc2ccccc21
Briefly: CPO-catalyzed degradation of carbamazepine, kinetic parameters (UV monitoring at 285 nm, CBZ concentration varied). Format: biochemical, Caldariomyces fumago. Particulars: other: CBZ as substrate, 0.02 to 0.11 mM, CPO isolated from C. fumago (5 nM), 100 mM KH2PO4 buffer, 20 mM KCl, pH 2.75, H2O2 0.35 mM or 0.07 mM, absorbance at 285 nm, 0.1 to 0.2 mi. The source says:
Chloroperoxidase (CPO) is a heme-containing glycoprotein secreted by the fungus Caldariomyces fumago.
The isolation of CPO proposed in this study was a modification of the protocol reported by Morris and Hager (1966), using acetone instead of ethanol as the fractionation solvent. CPO with Rz=1.45 was applied in all reactions (Rz is the purity standard, defined as A398/A280=1.44 for a pure enzyme). All solvents were HPLC grade or Optima® LC/MS grade, purchased from Thermo Fisher Scientific Inc. (Waltham, Mass., USA). Water was produced using a Milli-Q® Biocel™ Ultra-Pure water purification system equipped with 0.22 μM membrane filter cartridge (EMD Millipore, Billerica, Mass., USA), and an organic removal cartridge (Evoqua Water Technologies, Lowell, Mass., USA).
The rate was calculated by monitoring absorbance at 285 nm from 0.1 to 0.2 min. The reaction was carried out in 100 mM KH2PO4 buffer with 20 mM KCl at pH 2.75, with the concentration of CBZ varying from 0.02 to 0.11 mM. UV monitoring was started immediately after adding 0.35 mM H2O2.
All experiments were triplicated and data reported were mean values of three independent measurements with standard deviation.
1 min. after addition of 5 nM CPO, the 285 nm absorption decreased, and stopped […] at 4 min. The 285 nm wavelength was used to measure kinetic parameters of CBZ degradation catalyzed by CPO.

In patent publication US10301203B2, “Chloroperoxidase-catalyzed degradation of pharmaceutical pollutants in wastewater” (THE FLORIDA INTERNATIONAL UNIVERSITY BOARD OF TRUSTEES, priority 2017, dated 2019) one finds Km data, which are given here for one protein.

B1: chloroperoxidase (CPO) (Leptoxyphium fumago) (protein)
chain: QEPGSGIGYPYDNNTLPYVAPGPTDSRAPCPALNALANHGYIPHDGRAISRETLQNAFLNHMGIANSVIELALTNAFVVCEYVTGSDCGDSLVNLTLLAEPHAFEHDHSFSRKDYKQGVANSNDFIDNRNFDAETFQTSLDVVAGKTHFDYADMNEIRLQRESLSNELDFPGWFTESKPIQNVESGFIFALVSDFNLPDNDENPLVRIDWWKYWFTNESFPYHLGWHPPSPAREIEFVTSASSAVLAASVTSTPSSLPSGAIGPGAEAVPLSFASTMTPFLLATNAPYYAQDPTLGPND
notes: heme-containing glycoprotein secreted by the fungus Caldariomyces fumago; made in house; host or cells: Caldariomyces fumago (natural producer, not recombinant)
One may read the Km as the concentration of substrate that gives half-maximal velocity. On to B1, for which the Michaelis-Menten constant (Km) is on record as 73.35 µM.
